Data reported in patent US20190338048A1.
Read-outs that look alike come from different tables or passages of the source.

Assays:
[1] = target: CR8071 lambda light chain (L1) with V133G_S176R, design 2188, System C; assay: SMCA, LC-MS
[2] = target: CR8071 lambda light chain (L1) with V133G_S176R, design 2188, System C
[3] = target: CR8071 lambda light chain (L1) with E124K_Y178R, design 2830, System C; assay: SMCA, LC-MS
[4] = target: CR8071 lambda light chain (L1) with E124K_Y178R, design 2830, System C
[5] = target: Pertuzumab kappa light chain V133D_Q160E; assay: LCCA, SPR
[6] = target: Pertuzumab kappa light chain V133D; assay: LCCA, SPR
[7] = target: Pertuzumab kappa light chain V133D_Q160E; assay: LCCA, SPR; remark: listed apart in the source
[8] = target: CAT-2200 lambda light chain T131K_V133S; assay: LCCA, SPR
[9] = target: Pertuzumab kappa light chain Q124E_V133D_L135W; assay: LCCA, SPR tag read-out
[10] = target: CAT-2200 lambda light chain E124Q_T131K_V133S; assay: LCCA, SPR tag read-out
[11] = target: Pertuzumab kappa light chain S131D_V133G_T178F; assay: LCCA, SPR
[12] = target: Pertuzumab kappa light chain S131E_V133G_T178F; assay: LCCA, SPR
[13] = target: Pertuzumab kappa light chain S176E_T178E; assay: LCCA, SPR
[14] = target: Pertuzumab kappa light chain V133I_S176D_T178E; assay: LCCA, SPR
[15] = target: CAT-2200 lambda light chain E124Q_T131K; assay: LCCA, SPR
[16] = target: CAT-2200 lambda light chain E124Q_T131R; assay: LCCA, SPR
[17] = target: Pertuzumab kappa light chain S131D_V133G_T178F; assay: LCCA, SPR; remark: listed apart in the source
[18] = target: Pertuzumab kappa light chain S131E_V133G_T178F; assay: LCCA, SPR; remark: listed apart in the source
[19] = target: Pertuzumab kappa light chain S176E_T178E; assay: LCCA, SPR; remark: listed apart in the source
[20] = target: CAT-2200 lambda light chain E124Q_T131R; assay: LCCA, SPR; remark: listed apart in the source
[21] = target: CAT-2200 lambda light chain Y178K; assay: LCCA
[22] = target: Pertuzumab kappa light chain L135W_S176E_T178E; assay: LCCA
[23] = target: CAT-2200 lambda light chain E124Q_T131R; assay: LCCA, SPR tag read-out
[24] = target: Pertuzumab kappa light chain S131D_V133G_L135W_T178F; assay: LCCA, SPR tag read-out
[25] = target: Pertuzumab kappa light chain V133I_L135W_S176D_T178E; assay: LCCA, SPR tag read-out
[26] = target: CAT-2200 lambda light chain E124Q_T131R; assay: LCCA, SPR tag read-out; remark: listed apart in the source
[27] = target: Pertuzumab light chain (kappa) V133G_S176D, HA-tagged; assay: LCCA
[28] = target: Pertuzumab light chain (kappa) V133G_S176D, HA-tagged; assay: LCCA; remark: listed apart in the source
[29] = target: CAT-2200 light chain (lambda) V133I_L135K, FLAG-tagged; assay: LCCA
[30] = target: CAT-2200 light chain (lambda) V133I_L135R_Y178F, FLAG-tagged; assay: LCCA
[31] = target: CAT-2200 light chain (lambda) Y178K, FLAG-tagged; assay: LCCA
[32] = target: Pertuzumab light chain (kappa) V133G_S176D, HA-tagged; assay: LCCA; remark: listed apart in the source

CR8071 full-length IgG1 heavy chain (H1) with L124E, design 2188, System C
Change in % H1L1 Pairing with respect to wild type [1]: -23.5%
% H1L1 Pairing [2]: 24.9%

CR8071 full-length IgG1 heavy chain (H1) with L143E_K145T_Q179E, design 2830, System C
Change in % H1L1 Pairing with respect to wild type [3]: -20.4%
% H1L1 Pairing [4]: 28%

Pertuzumab Fab heavy chain S186K
H2L2:H2L1 normalized median ratio [5]: 74%
H2L2:H2L1 normalized median scalar value ln(r1/f1) [5]: 1.05
H2L2:H2L1 normalized median scalar value ln(r1/f1) [6]: 0.77
H2L2:H2L1 normalized median scalar value ln(r1/f1) [7]: 0.22
H2L2:H2L1 normalized median ratio [8]: 26%
H2L2:H2L1 median scalar value [9]: 0.96 ln(ratio)
H2L2:H2L1 normalized median ratio [9]: 72%
H2L2:H2L1 normalized median ratio [10]: 28%

Pertuzumab Fab heavy chain S188K
H2L2:H2L1 normalized median scalar value ln(r1/f1) [11]: 2.22
H2L2:H2L1 normalized median ratio [12]: 84%
H2L2:H2L1 normalized median scalar value ln(r1/f1) [12]: 1.67
H2L2:H2L1 normalized median scalar value ln(r1/f1) [13]: 2.75
H2L2:H2L1 normalized median ratio [14]: 91%
H2L2:H2L1 normalized median scalar value ln(r1/f1) [14]: 2.33
H2L2:H2L1 normalized median ratio [15]: 15%
H2L2:H2L1 normalized median ratio [16]: 16%
H2L2:H2L1 normalized median scalar value ln(r1/f1) [17]: 1.5
H2L2:H2L1 normalized median ratio [18]: 85%
H2L2:H2L1 normalized median scalar value ln(r1/f1) [18]: 1.7
H2L2:H2L1 normalized median scalar value ln(r1/f1) [19]: 2.71
H2L2:H2L1 normalized median ratio [20]: 9%
H2L2:H2L1 normalized median ratio [21]: 8%
H2L2:H2L1 median scalar value [22]: 2.55 ln
H2L2:H2L1 normalized median ratio [22]: 92%
H2L2:H2L1 normalized median ratio [23]: 15%
H2L2:H2L1 median scalar value [24]: 1.72 ln(ratio)
H2L2:H2L1 normalized median ratio [24]: 85%
H2L2:H2L1 median scalar value [25]: 2.03 ln(ratio)
H2L2:H2L1 normalized median ratio [25]: 88%
H2L2:H2L1 normalized median ratio [26]: 12%

Pertuzumab heavy chain Fab construct L124R
H2L2:H2L1 normalized median ratio, H2L2 share [27]: 84%
H2L2:H2L1 normalized median scalar value ln(r1/f1) [27]: 1.68
H2L2:H2L1 normalized median ratio, H2L2 share [28]: 83%
H2L2:H2L1 normalized median scalar value ln(r1/f1) [28]: 1.56
H2L2:H2L1 normalized median ratio (H2L1 share) [29]: 14%
H2L2:H2L1 normalized median ratio (H2L1 share) [30]: 17%
H2L2:H2L1 normalized median ratio (H2L1 share) [31]: 16%
H2L2:H2L1 normalized median ratio, H2L2 share [32]: 86%
H2L2:H2L1 normalized median scalar value ln(r1/f1) [32]: 1.8
